The source of these data is article doi:10.1101/2024.04.25.591137 (bioRxiv, 2024).

The series concerns the molecule itself. Description: negative-stain TEM of fibrils.

For the protein Ac-LVKPSFYVYSRVKNLNSSRV-NH2 [LV20, 20-residue SARS-CoV-2 envelope protein peptide LVKPSFYVYSRVKNLNSSRV], the binding result is listed as “binds”.
In the case of Ac-SFYVYSRVK-NH2 [SK9, SARS-CoV-2 envelope protein peptide SFYVYSRVK], the binding result is recorded as “binds”.
